# Results reported in patent US20180282402A1 (ATYR PHARMA, published 2018).
# Positions count from the first letter of the chain named.
# T1: Human HARS (human, UniProt P12081 1-509, limits assumed)
# T1 construct: also called human HRS; human histidyl-tRNA synthetase
# T1 sequence: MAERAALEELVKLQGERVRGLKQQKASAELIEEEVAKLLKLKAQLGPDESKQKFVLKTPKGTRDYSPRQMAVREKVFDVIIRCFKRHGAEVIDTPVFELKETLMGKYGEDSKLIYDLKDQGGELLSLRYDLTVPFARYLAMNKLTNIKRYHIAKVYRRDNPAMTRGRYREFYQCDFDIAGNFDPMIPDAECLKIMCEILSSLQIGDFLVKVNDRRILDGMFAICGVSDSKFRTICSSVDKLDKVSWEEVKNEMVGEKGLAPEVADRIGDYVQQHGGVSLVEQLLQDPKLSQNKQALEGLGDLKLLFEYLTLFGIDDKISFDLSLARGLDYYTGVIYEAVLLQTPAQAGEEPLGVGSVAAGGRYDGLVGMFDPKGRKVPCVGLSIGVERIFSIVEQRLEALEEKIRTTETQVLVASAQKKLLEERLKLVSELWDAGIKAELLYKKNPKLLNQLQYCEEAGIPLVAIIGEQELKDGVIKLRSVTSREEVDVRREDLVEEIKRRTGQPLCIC
# T2: Mouse HARS (mouse, UniProt Q61035 1-509, limits assumed)
# T2 construct: also called mouse HRS
# T2 sequence: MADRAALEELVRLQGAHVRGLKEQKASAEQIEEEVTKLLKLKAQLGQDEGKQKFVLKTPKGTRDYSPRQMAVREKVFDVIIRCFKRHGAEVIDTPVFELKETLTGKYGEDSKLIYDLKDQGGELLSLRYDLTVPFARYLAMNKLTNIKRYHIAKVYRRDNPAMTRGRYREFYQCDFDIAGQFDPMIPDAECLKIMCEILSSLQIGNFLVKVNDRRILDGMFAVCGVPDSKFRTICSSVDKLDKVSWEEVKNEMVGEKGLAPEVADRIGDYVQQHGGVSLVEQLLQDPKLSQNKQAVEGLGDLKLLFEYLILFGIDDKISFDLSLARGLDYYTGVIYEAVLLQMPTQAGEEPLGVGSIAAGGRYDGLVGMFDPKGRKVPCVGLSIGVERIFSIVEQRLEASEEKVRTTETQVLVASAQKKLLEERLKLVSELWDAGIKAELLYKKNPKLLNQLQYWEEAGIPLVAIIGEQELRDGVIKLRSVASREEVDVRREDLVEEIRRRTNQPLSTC
# T3: Fc-HRS(2-60) (human, UniProt P12081 2-60)
# T3 construct: Fc at the N-terminus, HRS residues 2-60 (WHEP domain) at the C-terminus; in the imaging assay pre-complexed with anti-Fc-PE; also called HRS-Fc fusion protein construct; ATYR1923; not shown: human IgG Fc region
# T3 sequence: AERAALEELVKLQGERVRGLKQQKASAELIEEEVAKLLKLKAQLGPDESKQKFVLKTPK
# B1: VEGF-A145 (ligand, human, UniProt P15692-6 27-171, looked up)
# chain: APMAEGGGQNHHEVVKFMDVYQRSYCHPIETLVDIFQEYPDEIEYIFKPSCVPLMRCGGCCNDEGLECVPTEESNITMQIMRIKPHQGQHIGEMSFLQHNKCECRPKKDRARQEKKSVRGKGKGQKRKRKKSRYKSWSVCDKPRR
# B2: VEGF-A121 (ligand, human, UniProt P15692-9 27-147, looked up)
# chain: APMAEGGGQNHHEVVKFMDVYQRSYCHPIETLVDIFQEYPDEIEYIFKPSCVPLMRCGGCCNDEGLECVPTEESNITMQIMRIKPHQGQHIGEMSFLQHNKCECRPKKDRARQEKCDKPRR
# B3: KL31-467 (antibody, V domains shown)
# VH: QVQLVQSGAEVKKPGASVKVSCKASGYTFTDYCIGWIRQAPGQGLEWMGDICPGDTYTNDNEKFKDRATMTADTSTSTAYMELSSLRSEDTAVYYCARGEEQLGLRNAMDYWGQGTLVTVSS
# VL: DIVMTQSPDSLAVSLGERATINCQSQSVSTSTYNYMHWYQQKPGQPPKLLIKYASNLESGVPDRFSGSGSGTDFTLTISSLQAEDVATYYCQHSWEIPWTFGGGTKVEIK
# notes: Humanized; IgG1m(zf) kappa
# B4: KL31-478 (antibody, V domains shown)
# VH: B3 VH
# VL: EIVLTQSPATLSLSPGERATLSCQSQSVSTSTYNYMHWYQQKPGQAPRLLIKYASNLESGIPDRFSGSGSGTDFTLTISRLEPEDFATYYCGHSYEIPWTFGGGTKVEIK
# notes: Humanized; IgG1m(zf) kappa
# B5: KL31-356 (antibody, IgG4, V domains shown)
# VH: B3 VH
# VL: B3 VL
# notes: Humanized; IgG4-2 kappa
# B6: AB04-168 (antibody, IgG4, V domains shown)
# VH: QVQLVESGGGLVKPGGSLRLSCAASGFTFSDYYMTWIRQAPGKGLEWVSYISGSFRYTNYADKVKGRFTISRDNAKNSLYLQMNSLRDEDTAVYFCARYVYQVVAIGDLWGQGTLVTVSS
# VL: DIQMTQSPSSVSASVGDRVTITCRASQGISSWLAWYQQKPGRAPKLLIFAASSLQSGVPSRFSGSGSGTHFTLTISSLQPEDFATYYCQQAESFPYTFGQGTKLEIK
# notes: Human; IgG4-2 kappa
# B7: AB13-433 (antibody, V domains shown)
# VH: QVQLVESGGGLVKPGGSLRLSCAASGFTFSDYYMSWIRQAPGKGLEWVSYISDSSTYTNYTDSVRGRFTISRDNAKNSLYLQMNSLRAEDTAVYYCARYLYQVIAVADSWGQGTLVTVSS
# VL: B6 VL with Y36F, R42K, F49Y, A50V, S53N, Q55E, H70D, E92N
# notes: Human; IgG1m(zf) kappa
# B8: AB13-288 (IgG1m(zf) kappa) (antibody, V domains shown)
# VH: B7 VH with S54K, T56R, N59K, S63K, V106I, S109A
# VL: B6 VL with Y36F, R42K, A50V, S53N, Q55E, H70D
# notes: Human
# B9: AB13-112 (IgG1m(za) kappa) (antibody, V domains shown)
# VH: B7 VH with S54K, T56R, N59K, S63K, V106I, S109A
# VL: B6 VL with Y36F, R42K, A50V, S53N, Q55E, H70D
# notes: Human
# B10: AB13-112 (IgG4 kappa) (antibody, V domains shown)
# VH: B7 VH with S54K, T56R, N59K, S63K, V106I, S109A
# VL: B6 VL with Y36F, R42K, A50V, S53N, Q55E, H70D
# notes: Human
# B11: AB13-288 (IgG4-2 kappa) (antibody, V domains shown)
# VH: B7 VH with S54K, T56R, N59K, S63K, V106I, S109A
# VL: B6 VL with Y36F, R42K, A50V, S53N, Q55E, H70D
# notes: Human
# B12: WARS WHEP (other, UniProt P23381 8-64, looked up)
# chain: SLLELFNSIATQGELVRSLKAGNASKDEIDSAVKMLVSLKMSYKAAAGEDYKADCPP
# notes: domain: WHEP domain; also called WHEP domain of WARS with a V5/His tag; not shown: V5/His tag
# B13: GARS Fc-WHEP (Fc fusion, UniProt P41250 63-119, looked up)
# chain: VLAPLRLAVRQQGDLVRKLKEDKAPQVDVDKAVAELKARKRVLEAKELALQPKDDIV
# notes: domain: WHEP domain; not shown: Fc domain
# B14: MARS Fc-WHEP (Fc fusion, UniProt P56192 841-897, looked up)
# chain: QIQALMDEVTKQGNIVRELKAQKADKNEVAAEVAKLLDLKKQLAVAEGKPPEAPKGK
# notes: as for B13
# B15: VEGF-C (ligand, human, UniProt P49767 103-227, looked up)
# chain: TEETIKFAAAHYNTEILKSIDNEWRKTQCMPREVCIDVGKEFGVATNTFFKPPCVSVYRCGGCCNSEGLQCMNTSTSYLSKTLFEITVPLSQGPKPVTISFANHTSCRCMSKLDVYRQVHSIIRR
# notes: also called Recombinant Human VEGF-C Protein
# Target: T4, NRP2-Fc (R&D Systems #2215-N2) (human, UniProt O60462 23-864, limits assumed)
# T4 construct: Bought reagent used as NRP2 in the SPR experiments; also called human NRP2; Neuropilin 2; not shown: Fc
# Experiment: SPR; column Binding to NRP2 observed by SPR
row,binding result,Binder
1,no binding,B1
2,no binding,B2

# Target: T1, Human HARS
# Experiment: SPR (ProteOn); HRS protein immobilized, antibody as analyte
row,Kd,Binder
1,0.21 nM,B3
2,0.076 nM,B4
3,0.3 nM,B5
4,0.015 nM,B6
5,0.21 nM,B7
6,< 0.001 nM,B8
7,< 0.001 nM,B9
8,< 0.001 nM,B10
9,< 0.001 nM,B11

# Target: T2, Mouse HARS
# Experiment: as above
row,Kd,Binder
1,0.96 nM,B3
2,0.614 nM,B4
3,1.4 nM,B5
4,0.145 nM,B6
5,0.21 nM,B7
6,< 0.001 nM,B8
7,< 0.001 nM,B9
8,0.0025 nM,B10
9,0.023 nM,B11

# Target: T4, NRP2-Fc (R&D Systems #2215-N2)
# Experiment: SPR: NRP2 as analyte over immobilized WARS WHEP [panel D]
row,binding result,Binder
1,no binding (tested: 20 nM),B12

# Target: T4, NRP2-Fc (R&D Systems #2215-N2)
# Experiment: SPR: NRP2 as analyte over immobilized GARS Fc-WHEP [panel B]
row,binding result,Binder
1,no binding (tested: 20 nM),B13

# Target: T4, NRP2-Fc (R&D Systems #2215-N2)
# Experiment: SPR: NRP2 as analyte over immobilized MARS Fc-WHEP [panel C]
row,binding result,Binder
1,no binding (tested: 20 nM),B14

# Target: T5, NRP2a-GFP fusion protein on HEK293T cells (human, UniProt O60462 23-931)
# T5 construct: Transiently expressed; cells fixed before staining; also called NRP2v2-GFP; cell-expressed NRP2a; not shown: GFP (Origene RG220706, NM_003872 ORF clone)
# Experiment: competition assay, immunofluorescence microscopy on HEK293T cells expressing NRP2v2-GFP, GFP-bright gate; VEGF-C titrated, competitor 175 nM Fc-HRS(2-60)/anti-Fc-PE [panel A]
# Experimental: HEK293T cells previously transfected with NRP2v2-GFP were passed the night before staining to 96 well Greiner Clear flat bottomed Microplates pre-coated with collagen coating solution. Supernatants were removed and cells were washed 1 time with binding buffer. Cells were then fixed with 50 μL of 3.7% methanol-free formaldehyde for 20 minutes at room temperature. Cells were washed 2× with binding buffer and then blocked with 100 μL of blocking buffer for 1 hour at room temperature. The cells were then washed one time with binding buffer and then incubated with 50 μL of staining complex overnight at 4 degrees Celsius. Cells were then washed 3 times with binding buffer, and then nuclei were counter stained with […] Hoechst diluted in DPBS for 10 minutes at room temperature. The Hoechst stain was replaced with 1×PBS and subsequently read on an IN Cell Analyzer 2200. 20× images were acquired and analyzed using In Cell Analyzer 1000 Workstation software. Segmentation of the cell mask was achieved using the GFP channel, and the average PE signal intensity was determined within this mask above a threshold intensity of 5000 (termed GFP Bright cells).
row,IC50 (read off the curve),Binder
1,~2 nM,B15

# Target: T3, Fc-HRS(2-60)
# Experiment: flow cytometry blocking assay: 43.75 nM biotinylated Fc-HRS(2-60) complexed with 87.5 nM streptavidin-PE, added with titrated antibody to Expi293 cells stably expressing NRP2, the blocked partner [panel A]
row,IC50 (read off the curve),Binder
1,~20 nM,B3
2,~20 nM,B5

# Target: T3, Fc-HRS(2-60)
# Experiment: flow cytometry blocking assay: 43.75 nM biotinylated Fc-HRS(2-60) complexed with 87.5 nM streptavidin-PE, added with titrated antibody to Expi293 cells stably expressing NRP2, the blocked partner [panel B]
row,IC50 (read off the curve),Binder
1,~10 nM,B4
